# Several values for one entry are separate records, joined by “and”; a condition that tells them apart may be missing. Equal values may be shown once. Read-outs that look alike come from different tables or passages of the source.
# Tests used:
# [1] = target: IkBa phosphopeptide (IkBa-24pp), …(p)SGLD(p)SMKDEEYC; assay: ECL 4-spot multi-array binding assay: peptide-BSA spot
# BSA (control coating) = BSA (control coating) (UniProt P02769); assay: ECL plate binding assay: BSA control on electrode, biotinylated TnT protein, Sulfo-TAG streptavidin
# [2] = target: IkBa phosphopeptide (IkBa-24pp), …(p)SGLD(p)SMKDEEYC; assay: ECL plate binding assay: peptide-BSA on electrode, biotinylated TnT protein, Sulfo-TAG streptavidin
# [3] = target: c-Myc phosphopeptide (Myc-p58Tp62S), …(p)TPPL(p)SPSRRSGL; assay: as above
# [4] = target: T1, EGFR-pY1068 phosphopeptide, LPVPE(p)…; assay: ECL 4-spot multi-array binding assay: peptide-BSA spot, biotinylated TnT protein, Sulfo-TAG streptavidin
# T1 sequence (peptide, phosphotyrosine at (p)Y (residue 6 of the printed peptide; EGFR Tyr1068)): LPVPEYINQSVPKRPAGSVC
# [5] = target: EGFR-pY1148 phosphopeptide, …(p)…; assay: as above
# [6] = target: IkBa phosphopeptide (IkBa-24pp), …(p)SGLD(p)SMKDEEYC; assay: as above
# [7] = target: EGFR-pY1148 phosphopeptide, …(p)…; assay: ECL 7-spot plate screen, peptide-BSA spot, biotinylated TnT protein, Ru-streptavidin; signal normalized in two steps
# [8] = target: IkBa phosphopeptide (IkBa-24pp), …(p)SGLD(p)SMKDEEYC; assay: as above
# [9] = target: c-Myc phosphopeptide (Myc-p58Tp62S), …(p)TPPL(p)SPSRRSGL; assay: as above
# [10] = target: T1, EGFR-pY1068 phosphopeptide, LPVPE(p)…; assay: as above
# [11] = target: EGFR-pY992 phosphopeptide, DADE(p)…; assay: as above
# [12] = target: EGFR-pY992 phosphopeptide, DADE(p)…; assay: ECL 4-spot multi-array binding assay: peptide-BSA spot, biotinylated TnT protein, Sulfo-TAG streptavidin
# [13] = target: phosphorylated EGFR (Sigma Chemical Co, self-phosphorylated) (UniProt P00533); assay: TnT protein on streptavidin plate, […] phosphorylated EGFR; bound EGFR detected with TAG-labeled anti-EGFR (clone 225)
# [14] = target: phosphorylated EGFR (Sigma Chemical Co, self-phosphorylated) (UniProt P00533); assay: TnT protein on streptavidin plate, […] phosphorylated EGFR; bound EGFR detected by its kinase activity on pEY, 1 hr reaction
# [15] = target: phosphorylated EGFR (Sigma Chemical Co, self-phosphorylated) (UniProt P00533); assay: TnT protein on streptavidin plate, […] phosphorylated EGFR; bound EGFR detected by its kinase activity on pEY, 12 hr reaction
# Sequence of c-Myc phosphopeptide (Myc-p58Tp62S), …(p)TPPL(p)SPSRRSGL (peptide, as listed by the source): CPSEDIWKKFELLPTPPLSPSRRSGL
# Sequence of EGFR-pY992 phosphopeptide, DADE(p)… (peptide, as listed by the source): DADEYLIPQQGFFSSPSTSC
# Sequence of BSA (control coating) (P02769 25-607 limits assumed): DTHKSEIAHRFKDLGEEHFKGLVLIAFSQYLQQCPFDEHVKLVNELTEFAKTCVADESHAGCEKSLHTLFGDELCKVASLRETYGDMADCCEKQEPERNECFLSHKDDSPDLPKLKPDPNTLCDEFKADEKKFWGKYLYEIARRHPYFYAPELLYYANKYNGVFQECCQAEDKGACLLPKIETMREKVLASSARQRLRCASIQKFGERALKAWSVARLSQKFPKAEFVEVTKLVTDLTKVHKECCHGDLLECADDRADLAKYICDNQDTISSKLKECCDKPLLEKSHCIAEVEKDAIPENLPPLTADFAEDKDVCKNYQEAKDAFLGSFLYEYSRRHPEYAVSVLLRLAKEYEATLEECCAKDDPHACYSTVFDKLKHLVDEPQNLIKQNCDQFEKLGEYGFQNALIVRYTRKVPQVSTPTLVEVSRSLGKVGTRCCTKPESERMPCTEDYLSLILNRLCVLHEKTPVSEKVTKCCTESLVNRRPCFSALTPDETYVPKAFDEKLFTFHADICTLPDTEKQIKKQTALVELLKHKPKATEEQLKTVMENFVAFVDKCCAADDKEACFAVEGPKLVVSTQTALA
# Sequence of IkBa phosphopeptide (IkBa-24pp), …(p)SGLD(p)SMKDEEYC (peptide, as listed by the source): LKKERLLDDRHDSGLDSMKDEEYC
# Sequence of βTRCP1 (EST clone IMAGE 3491843), in vitro translated, biotin-labelled (Q9Y297 whole entry): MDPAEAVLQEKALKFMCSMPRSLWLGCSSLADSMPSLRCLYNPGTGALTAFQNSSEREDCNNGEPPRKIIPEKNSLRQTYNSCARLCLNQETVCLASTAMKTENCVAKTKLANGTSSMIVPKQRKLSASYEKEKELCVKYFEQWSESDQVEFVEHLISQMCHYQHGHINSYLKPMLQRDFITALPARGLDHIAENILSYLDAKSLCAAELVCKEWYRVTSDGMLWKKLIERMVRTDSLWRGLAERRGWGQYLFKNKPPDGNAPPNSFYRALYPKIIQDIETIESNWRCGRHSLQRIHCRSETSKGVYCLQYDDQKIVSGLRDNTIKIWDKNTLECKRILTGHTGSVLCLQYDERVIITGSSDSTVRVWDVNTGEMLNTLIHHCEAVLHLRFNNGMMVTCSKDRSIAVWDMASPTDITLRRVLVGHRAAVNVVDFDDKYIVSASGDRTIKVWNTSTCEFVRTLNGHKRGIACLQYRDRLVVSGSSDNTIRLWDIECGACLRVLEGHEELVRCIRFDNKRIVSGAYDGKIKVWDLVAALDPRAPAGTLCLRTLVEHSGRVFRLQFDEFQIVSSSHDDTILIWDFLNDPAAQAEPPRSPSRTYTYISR
# Sequence of βTRCP2 (EST clone IMAGE 4237375), in vitro translated, biotin-labelled (Q9UKB1 whole entry): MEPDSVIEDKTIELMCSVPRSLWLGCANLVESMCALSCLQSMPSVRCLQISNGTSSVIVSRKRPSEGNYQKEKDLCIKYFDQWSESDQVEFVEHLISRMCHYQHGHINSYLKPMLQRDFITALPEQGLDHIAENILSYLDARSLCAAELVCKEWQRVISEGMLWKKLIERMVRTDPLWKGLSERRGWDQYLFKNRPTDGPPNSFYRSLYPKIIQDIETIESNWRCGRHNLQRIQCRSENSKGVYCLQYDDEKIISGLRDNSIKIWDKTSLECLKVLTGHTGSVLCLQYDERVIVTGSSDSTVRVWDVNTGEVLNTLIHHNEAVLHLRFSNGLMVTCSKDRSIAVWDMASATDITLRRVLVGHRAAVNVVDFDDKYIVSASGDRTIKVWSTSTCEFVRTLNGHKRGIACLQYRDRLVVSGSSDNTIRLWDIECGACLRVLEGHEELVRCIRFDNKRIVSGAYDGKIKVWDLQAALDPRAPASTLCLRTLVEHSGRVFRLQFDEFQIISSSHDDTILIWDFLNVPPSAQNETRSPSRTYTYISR
Substance,fold ECL signal over TnT reaction without exogenous DNA [1],Average ECL signal (BSA (control coating)),Average ECL signal [2],Average ECL signal [3],ECL signal [4],ECL signal [5],ECL signal [6],normalized ECL signal [7],normalized ECL signal [8],normalized ECL signal ([8]; positive control preparation),normalized ECL signal [9],normalized ECL signal [10],normalized ECL signal [11],ECL signal [12],ECL signal [13],ECL signal [14],ECL signal [15]
"βTRCP1 (EST clone IMAGE 3491843), in vitro translated, biotin-labelled (from UniProt Q9Y297 1-605)",100 fold,1720 ECL signal,40900 ECL signal,2120 ECL signal,24 ECL signal,36 ECL signal,2470 ECL signal,1,12,23,8 and 4,,,,,,
"Shc (EST clone IMAGE 3914467), in vitro translated, biotin-labelled (from UniProt P29353 1-473)",,,,,,,,3,,,,1,1,,,,
"mCBP (EST clone IMAGE 3872466), in vitro translated, biotin-labelled",,352 ECL signal,371 ECL signal,351 ECL signal,126 ECL signal,278 ECL signal,446 ECL signal,,,,,,,498 ECL signal,,,
"Shc (EST clone IMAGE 3909921), in vitro translated, biotin-labelled (from UniProt P29353 1-473)",,,,,,,,5,,,,1,1,,,,
"Phospholipase C gamma 1 (PLCγ) (EST clone IMAGE 4419252), in vitro translated, biotin-labelled (from UniProt P19174 1-1290) (enzyme)",,,,,1480 ECL signal,110 ECL signal,,4,,,,55,10,1400 ECL signal,30400 ECL signal,18000 ECL signal,39800 ECL signal
"βTRCP2 (EST clone IMAGE 4237375), in vitro translated, biotin-labelled (from UniProt Q9UKB1 1-542)",100 fold,672 ECL signal,21500 ECL signal,896 ECL signal,24 ECL signal,35 ECL signal,5040 ECL signal,1,,,10,,,,,,
"Shc (EST clone IMAGE 3909654), in vitro translated, biotin-labelled (from UniProt P29353 1-473)",,,,,,,,3,,,,1,1,,,,
"Shc (EST clone IMAGE 3911953), in vitro translated, biotin-labelled (from UniProt P29353 1-473)",,,,,,,,3,,,,1,1,,,,
